Positions count from the first letter of the chain named.

Results on 24 molecules are retold here after patent publication US20030068675, “Position dependent recognition of GNN nucleotide triplets by zinc fingers” (published 2003).

Holding throughout (experiment): EMSA
Holding throughout (details): tags: MBP fusion
On the technique in general: A gel shift assay detects complexes by their altered migration in electrophoresis.

The target of one data set is ZFP SBS#577 (synthetic, UniProt P08047). A digest of the protocol:
(§1)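 Purified ZFP was titrated against labeled double-stranded target (1 nM or lower, at least 10-fold below expected Kd) carrying the natural binding site with flanks. Binding buffer was 10 mM Tris pH 7.5, 100 mM KCl, 1 mM MgCl2, 0.1 mM ZnCl2, 5 mM DTT, 10% glycerol, 0.02% BSA, with equilibration for at least 45 min. Bound and free target were separated on a 10% polyacrylamide gel.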

A further data set has as its target ZFP SBS#522 (synthetic, UniProt P08047). A digest of the protocol: as §1
Another data set addresses ZFP SBS#517 (synthetic, UniProt P08047). The essentials: as §1
The target of another data set is ZFP SBS#518 (synthetic, UniProt P08047). A digest of the protocol: as §1
A further data set concerns the target T1, ZFP SBS#595 (synthetic).
T1 chain: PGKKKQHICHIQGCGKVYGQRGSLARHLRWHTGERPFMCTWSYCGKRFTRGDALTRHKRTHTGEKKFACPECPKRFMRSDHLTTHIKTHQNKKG
A digest of the protocol: as §1

In another data set the target is T2, ZFP SBS#276 (synthetic).
T2 chain: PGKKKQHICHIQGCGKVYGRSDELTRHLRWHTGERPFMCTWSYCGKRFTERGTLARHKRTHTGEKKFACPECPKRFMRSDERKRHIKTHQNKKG
The essentials: as §1

The target of the next data set is T3, ZFP SBS#277 (synthetic).
T3 chain: T2 chain with E50D, G52S, T53S, A55T
A digest of the protocol:
as §1

A further data set deals with T4, ZFP SBS#281 (synthetic).
T4 chain: T2 chain with R20Q, D22G, E23S, E50D, G52S, T53S, A55T
A digest of the protocol: as §1

The next data set deals with T5, ZFP SBS#279 (synthetic).
T5 chain: T2 chain with R20Q, D22W, E50D, G52S, T53S, A55T
The essentials:
as §1

Another data set has as its target T6, ZFP SBS#278 (synthetic).
T6 chain: T2 chain with R20Q, D22W
A digest of the protocol: as §1

The target in another data set is T7, ZFP SBS#280 (synthetic).
T7 chain: T2 chain with R20Q, D22G, E23S
A digest of the protocol: as §1

Another data set concerns the target T8, ZFP SBS#252 (synthetic).
T8 chain: T2 chain with E50D, G52S, T53S, A55T, R82L, K83R
The essentials:
as §1

Another data set concerns the target ZFP SBS#515 (synthetic). A digest of the protocol:
as §1

The target of a further data set is ZFP SBS#520 (synthetic). A digest of the protocol: as §1
The next data set has as its target ZFP SBS#588 (synthetic, UniProt P08047). A digest of the protocol:
as §1

Another data set concerns the target T9, ZFP SBS#581 (synthetic).
T9 chain: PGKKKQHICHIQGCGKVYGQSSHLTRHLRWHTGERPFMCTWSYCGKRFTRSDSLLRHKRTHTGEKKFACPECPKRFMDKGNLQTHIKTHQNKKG
The essentials:
as §1

The target in a further data set is ZFP SBS#576 (synthetic). A digest of the protocol:
as §1

In a further data set the target is T10, ZFP SBS#575 (synthetic).
T10 chain: T9 chain with Q20D, S21F, S53H, L55T
The essentials:
as §1

For another data set, the target named is ZFP SBS#538 (synthetic). A digest of the protocol: as §1
The next data set concerns the target ZFP SBS#587 (synthetic). The essentials:
as §1

The next data set addresses T11, ZFP SBS#579 (synthetic).
T11 chain: T2 chain with E23N, E50N, G52D, R78T, D80G, E81H, R82L, K83T
The essentials: as §1

For another data set, the target named is T12, ZFP SBS#574 (synthetic).
T12 chain: T9 chain with Q20R, S22D, S53H, L55T
The essentials:
as §1

The target in the next data set is ZFP SBS#516 (synthetic, UniProt P08047). The essentials: as §1
The target in another data set is T13, ZFP SBS#531 (synthetic, UniProt P08047).
T13 chain: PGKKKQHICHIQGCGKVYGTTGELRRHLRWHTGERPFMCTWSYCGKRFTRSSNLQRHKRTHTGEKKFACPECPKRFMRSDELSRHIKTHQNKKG
The essentials: as §1

The target in another data set is ZFP SBS#533 (synthetic). The essentials:
as §1

Another data set concerns the target ZFP SBS#532 (synthetic, UniProt P08047). A digest of the protocol: as §1
In another data set the target is ZFP SBS#534 (synthetic). The essentials:
as §1

A further data set concerns the target T14, ZFP SBS#514 (synthetic).
T14 chain: T1 chain with Q20R, R21S, G22D, S23A, A25T, G51S, T55A, H81N
A digest of the protocol:
as §1

The target in a further data set is ZFP SBS#513 (synthetic). The essentials: as §1
A further data set concerns the target ZFP SBS#512 (synthetic). The essentials: as §1
The next data set concerns the target T15, ZFP SBS#540 (synthetic).
T15 chain: T1 chain with Q20D, G22S, S23H, A25T, R50Q, G51S, D52G, A53S
A digest of the protocol: as §1

The target of the next data set is T16, ZFP SBS#570 (synthetic).
T16 chain: T13 chain with T20D, T21S, E23H, R25T, R50Q, S51R, Q55V, E81H, S83T
The essentials:
as §1

A further data set concerns the target ZFP SBS#519 (synthetic, UniProt P08047). The essentials: as §1
In the next data set the target is ZFP SBS#583 (synthetic). The essentials: as §1
Chain of ZFP SBS#583 (synthetic) (chain, as listed by the source): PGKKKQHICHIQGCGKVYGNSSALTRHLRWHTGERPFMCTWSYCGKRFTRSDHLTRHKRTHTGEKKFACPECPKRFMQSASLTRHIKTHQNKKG

Chain of ZFP SBS#576 (synthetic) (chain, as listed by the source): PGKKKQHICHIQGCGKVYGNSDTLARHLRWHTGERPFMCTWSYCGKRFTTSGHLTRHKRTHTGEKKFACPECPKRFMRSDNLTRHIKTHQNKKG
Chain of ZFP SBS#513 (synthetic) (chain, as listed by the source): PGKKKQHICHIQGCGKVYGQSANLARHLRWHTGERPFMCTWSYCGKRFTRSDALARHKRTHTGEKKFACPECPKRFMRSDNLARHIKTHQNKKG
Chain of ZFP SBS#519 (P08047 other isoform, or with tags, fused parts or gaps): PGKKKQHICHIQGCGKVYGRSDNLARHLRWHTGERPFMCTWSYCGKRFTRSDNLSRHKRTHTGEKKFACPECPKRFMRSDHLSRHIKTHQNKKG
Chain of ZFP SBS#512 (synthetic) (chain, as listed by the source): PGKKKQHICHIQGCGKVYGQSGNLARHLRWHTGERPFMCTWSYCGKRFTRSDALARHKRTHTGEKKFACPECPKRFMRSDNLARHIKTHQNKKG
Chain of ZFP SBS#587 (synthetic) (chain, as listed by the source): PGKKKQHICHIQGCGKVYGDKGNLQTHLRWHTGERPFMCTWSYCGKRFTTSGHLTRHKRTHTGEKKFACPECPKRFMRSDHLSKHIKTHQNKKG
Chain of ZFP SBS#532 (P08047 other isoform, or with tags, fused parts or gaps): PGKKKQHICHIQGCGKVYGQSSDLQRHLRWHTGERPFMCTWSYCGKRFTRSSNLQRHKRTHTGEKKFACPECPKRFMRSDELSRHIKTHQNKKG
Chain of ZFP SBS#517 (P08047 other isoform, or with tags, fused parts or gaps): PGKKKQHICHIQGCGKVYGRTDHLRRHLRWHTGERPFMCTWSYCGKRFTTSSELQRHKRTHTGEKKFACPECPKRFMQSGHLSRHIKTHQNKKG
Chain of ZFP SBS#533 (synthetic) (chain, as listed by the source): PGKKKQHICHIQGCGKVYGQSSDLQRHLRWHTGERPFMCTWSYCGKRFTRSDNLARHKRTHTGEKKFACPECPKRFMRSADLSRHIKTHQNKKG
Chain of ZFP SBS#518 (P08047 other isoform, or with tags, fused parts or gaps): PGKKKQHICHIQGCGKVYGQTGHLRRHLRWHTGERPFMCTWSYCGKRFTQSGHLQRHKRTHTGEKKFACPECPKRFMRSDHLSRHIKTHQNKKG

B1: GGAGCGGGGA (dsDNA)
DNA 1: GGAGCGGGGA
DNA 2: TCCCCGCTCC
Turning to B1, binding with ZFP SBS#577 was put at a Kd of 200 nM.

B2: GATGAGGCA (dsDNA)
DNA 1: GATGAGGCA
DNA 2: TGCCTCATC
Take B2: the dissociation constant (Kd) (usually the constant that tells how readily two partners part at equilibrium) in the data set with ZFP SBS#522 was determined as 200 nM.

B3: GGAGCTGGGG (dsDNA)
DNA 1: GGAGCTGGGG
DNA 2: CCCCAGCTCC
Regarding B3, the Kd with ZFP SBS#517 turned out to be 50 nM.

B4: GGGGGAGGAG (dsDNA)
DNA 1: GGGGGAGGAG
DNA 2: CTCCTCCCCC
In the case of B4, the Kd with ZFP SBS#518 worked out at 30 nM.

B5: TGGTTGGTAT (dsDNA)
DNA 1: TGGTTGGTAT
DNA 2: ATACCAACCA
With B5, the Kd with ZFP SBS#595 amounted to 73.3 nM.

B6: GCGGCCGCG (dsDNA)
DNA 1: GCGGCCGCG
DNA 2: CGCGGCCGC
As to B6, the dissociation constant Kd was 90 nM in the data set with ZFP SBS#276; 107 nM in the data set with ZFP SBS#277; 225 nM with ZFP SBS#281; 260 nM in the data set with ZFP SBS#279; 190 nM with ZFP SBS#278; 160 nM in the data set with ZFP SBS#280. Besides, the dissociation constant (Kd) in the data set with ZFP SBS#252 stood at 100 nM.

B7: TGGGAGGAGT (dsDNA)
DNA 1: TGGGAGGAGT
DNA 2: ACTCCTCCCA
For the molecule B7, the equilibrium dissociation constant (Kd) in the data set with ZFP SBS#515 was 0.5 nM.

B8: GGAGGAGAT (dsDNA)
DNA 1: GGAGGAGAT
DNA 2: ATCTCCTCC
In the data set with ZFP SBS#520, B8 came in with an equilibrium dissociation constant (Kd) of 300 nM.

B9: GGGGGGGGGG (dsDNA)
DNA 1: GGGGGGGGGG
DNA 2: CCCCCCCCCC
Regarding B9, binding in the data set with ZFP SBS#588 was put at a Kd of 30 nM.

B10: TACGTGGGTT (dsDNA)
DNA 1: TACGTGGGTT
DNA 2: AACCCACGTA
Turning to B10, the affinity in the data set with ZFP SBS#581, expressed as Kd, was 382 nM.

B11: GAGGGTGTTG (dsDNA)
DNA 1: GAGGGTGTTG
DNA 2: CAACACCCTC
B11 had a Kd with ZFP SBS#576 of 200 nM.

B12: TACGTGGGCT (dsDNA)
DNA 1: TACGTGGGCT
DNA 2: AGCCCACGTA
B12 came in with a dissociation constant (Kd) with ZFP SBS#575 of 472 nM.

B13: GCAGAGGCTT (dsDNA)
DNA 1: GCAGAGGCTT
DNA 2: AAGCCTCTGC
With B13, the Kd in the data set with ZFP SBS#538 was 70 nM.

B14: GGGGGTTACG (dsDNA)
DNA 1: GGGGGTTACG
DNA 2: CGTAACCCCC
For the molecule B14, binding with ZFP SBS#587 was put at a Kd of 500 nM.

B15: GGGGTTGAGG (dsDNA)
DNA 1: GGGGTTGAGG
DNA 2: CCTCAACCCC
Molecule B15 gave a Kd with ZFP SBS#579 of 200 nM.

B16: TACGTGGGGT (dsDNA)
DNA 1: TACGTGGGGT
DNA 2: ACCCCACGTA
Molecule B16 yielded a dissociation constant (Kd) in the data set with ZFP SBS#574 of 25 nM.

B17: GGAGGAGCT (dsDNA)
DNA 1: GGAGGAGCT
DNA 2: AGCTCCTCC
B17 registered a Kd in the data set with ZFP SBS#516 of 700 nM.

B18: GCGGAGGCTT (dsDNA)
DNA 1: GCGGAGGCTT
DNA 2: AAGCCTCCGC
Regarding B18, the Kd worked out at 160 nM with ZFP SBS#531, 7 nM with ZFP SBS#533, 100 nM in the data set with ZFP SBS#532 and 10 nM in the data set with ZFP SBS#534.

B19: TAGGTGGTGG (dsDNA)
DNA 1: TAGGTGGTGG
DNA 2: CCACCACCTA
With B19, in the data set with ZFP SBS#514, binding was characterised by a dissociation constant (Kd) of 10 nM.

B20: GAGGTGGAAG (dsDNA)
DNA 1: GAGGTGGAAG
DNA 2: CTTCCACCTC
Take B20: the dissociation constant (Kd) was 1.5 nM with ZFP SBS#513 and 10 nM with ZFP SBS#512.

B21: TGGGCAGGCC (dsDNA)
DNA 1: TGGGCAGGCC
DNA 2: GGCCTGCCCA
With B21, in the data set with ZFP SBS#540, binding was put at a Kd of 55 nM.

B22: GGGGAAGGCT (dsDNA)
DNA 1: GGGGAAGGCT
DNA 2: AGCCTTCCCC
As for B22, the affinity with ZFP SBS#570, expressed as Kd, was 20 nM.

B23: GGGGAGGAGA (dsDNA)
DNA 1: GGGGAGGAGA
DNA 2: TCTCCTCCCC
In the case of B23, binding with ZFP SBS#519 was characterised by a dissociation constant (Kd) of 0.3 nM.

B24: GTAGGGGTTG (dsDNA)
DNA 1: GTAGGGGTTG
DNA 2: CAACCCCTAC
In the data set with ZFP SBS#583, B24 displayed an equilibrium dissociation constant (Kd) of 46 nM.
